Assay results published in patent publication US20060259987A1 (UNIVERSITY OF UTAH RESEARCH FOUNDATION, published 2006).
Where a chain is given by its changes, count along the chain named. Values belong to the binder of their own block, whether it stands above or below them.

Experiments:
thrombin [1] = target: T1, thrombin (human, UniProt P00734 328-622); assay: cell-based or functional assay
factor Xa [2] = target: T2, factor Xa (human, UniProt P00742 41-179; P00742 235-488, limits assumed); assay: cell-based or functional assay
thrombin [3] = target: T1, thrombin; assay: Kapp IIa/hep relative to plasma.at3
factor Xa [4] = target: T2, factor Xa; assay: Kapp fXa/hep relative to plasma.at3
thrombin [5] = target: T1, thrombin; assay: Kapp IIa/prog relative to plasma.at3
factor Xa [6] = target: T2, factor Xa; assay: Kapp fXa/prog relative to plasma.at3
thrombin [7] = target: T1, thrombin; assay: thrombin +hep: pseudo-first-order loss of chromogenic activity with heparin
Protocol: (§1) Polybrene was added with the chromogenic substrate to quench the heparin dependent reaction. The observed pseudo-first-order rate constants were calculated for each heparin (1 nM-5 nM) concentration from the slope of the log of residual proteinase activity vs. time. This was plotted against the heparin concentration to calculate the second-order rate constant for the inhibition by the heparin-ATIII complex, (Kₕₑₚ) from the equation Kobs=Kₕₑₚ[H]ₒ([AT]ₒ/[AT]ₒ+Kd)+Kuncat[AT]ₒ

factor Xa [8] = target: T2, factor Xa; assay: factor Xa +hep: pseudo-first-order loss of chromogenic activity with heparin
Protocol: as §1

thrombin [9] = target: T1, thrombin; assay: thrombin prog: pseudo-first-order loss of chromogenic activity, no heparin, 25 C
Protocol: (§2) Polybrene was added with the chromogenic substrate to quench the heparin dependent reaction. […] This was plotted against the heparin concentration to calculate the second-order rate constant for the inhibition by the heparin-ATIII complex, (Kₕₑₚ) from the equation Kobs=Kₕₑₚ[H]ₒ([AT]ₒ/[AT]ₒ+Kd)+Kuncat[AT]ₒ

factor Xa [10] = target: T2, factor Xa; assay: factor Xa prog: pseudo-first-order loss of chromogenic activity, no heparin, 25 C
Protocol: as §2

T2 sequence (P00742 41-179 limits assumed, chain 1 of 2): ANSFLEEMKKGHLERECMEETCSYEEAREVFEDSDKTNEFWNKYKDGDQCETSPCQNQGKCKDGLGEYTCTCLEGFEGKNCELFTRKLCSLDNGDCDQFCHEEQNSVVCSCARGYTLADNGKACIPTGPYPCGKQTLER
T2 sequence (P00742 235-488 limits assumed, chain 2 of 2): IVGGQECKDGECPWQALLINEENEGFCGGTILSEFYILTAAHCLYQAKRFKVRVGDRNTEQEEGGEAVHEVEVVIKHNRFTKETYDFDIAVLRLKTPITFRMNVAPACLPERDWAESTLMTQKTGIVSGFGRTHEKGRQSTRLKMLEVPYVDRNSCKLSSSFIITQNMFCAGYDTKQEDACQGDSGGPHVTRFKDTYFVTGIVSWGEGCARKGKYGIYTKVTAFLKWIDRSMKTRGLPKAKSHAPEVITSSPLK

- IC50 IIa/UFH; HCA #2 (thrombin [1]): 75 nM
- IC50 IIa/UFH; HCA #3 (thrombin [1]): 43 nM
- IC50 IIa/UFH; HCA #4 (thrombin [1]): 55 nM
- rsd. IIa catG; CA #12; stg1 conc 200 (thrombin [1]): 1%
- rsd. IIa catG; CA #14; stg1 conc 200 (thrombin [1]): 1%
- rsd. IIa catG; CA #15; stg1 conc 200 (thrombin [1]): 1%
- rsd. IIa hne; CA #12; stg1 conc 200 (thrombin [1]): 2%
- rsd. IIa hne; CA #14; stg1 conc 200 (thrombin [1]): 3%
- rsd. IIa hne; CA #15; stg1 conc 200 (thrombin [1]): 4%
- rsd. IIa no add; CA #12; stg1 conc 200 (thrombin [1]): 1%
- rsd. IIa no add; CA #14; stg1 conc 200 (thrombin [1]): 7%
- rsd. IIa no add; CA #15; stg1 conc 200 (thrombin [1]): -1%
- IC50 fXa/UFH; HCA #2 (factor Xa [2]): 65 nM
- IC50 fXa/UFH; HCA #3 (factor Xa [2]): 46 nM
- IC50 fXa/UFH; HCA #4 (factor Xa [2]): 40 nM
- rsd. Xa catG; CA #12; stg1 conc 200 (factor Xa [2]): 1%
- rsd. Xa catG; CA #14; stg1 conc 200 (factor Xa [2]): 2%
- rsd. Xa catG; CA #15; stg1 conc 200 (factor Xa [2]): 0%
- rsd. Xa hne; CA #12; stg1 conc 200 (factor Xa [2]): 1%
- rsd. Xa hne; CA #14; stg1 conc 200 (factor Xa [2]): 4%
- rsd. Xa hne; CA #15; stg1 conc 200 (factor Xa [2]): 1%
- rsd. Xa no add; CA #12; stg1 conc 200 (factor Xa [2]): 1%
- rsd. Xa no add; CA #14; stg1 conc 200 (factor Xa [2]): 2%
- rsd. Xa no add; CA #15; stg1 conc 200 (factor Xa [2]): 1%
- Kapp as a percentage of the plasma ATIII value (thrombin [3]): 36%
- Kapp as a percentage of the plasma ATIII value (factor Xa [4]): 85%
- Kapp as a percentage of the plasma ATIII value (thrombin [5]): 104%
- Kapp as a percentage of the plasma ATIII value (factor Xa [6]): 1150%
- kapp (apparent second-order inhibition rate constant) (thrombin [7]): 2.11e+06 M⁻¹ s⁻¹
- kapp (apparent second-order inhibition rate constant) (factor Xa [8]): 489000 M⁻¹ s⁻¹
- kapp (apparent second-order inhibition rate constant) (thrombin [9]): 7310 M⁻¹ s⁻¹
- kapp (apparent second-order inhibition rate constant) (factor Xa [10]): 24100 M⁻¹ s⁻¹
B1: LEAI.480 (other)
chain: SPVDICTAKPRDIPMNPMCIYRSPEKKATEDEGSEQKIPEATNRRVWELSKANSRFATTFYQHLADSKNDNDNIFLSPLSISTAFAMTKLGACNDTLQQLMEVFKFDTISEKTSDQIHFFFAKLNCRLYRKANKASKLVSANRLFGDKSLTFNETYQDISELVYGAKLQPLDFKENAEQSRAAINKWVSNKTEGRITDVIPSEAINELTVLVLVNTIYFKGLWKSKFSPENTRKELFYKADGESCSASMMYQEGKFRYRRVAEGTQVLELPFKGDDITMVLILPKPEKSLAKVEKELTPEVLQEWLDELEEMMLVVHMPRFRIEDGFSLKEQLQDMGLVDLFSPEKSKLPGIVAEGRDDLYVSDAFHKAFLEVNEEGSEAAASTALEAYGRSLNPNRVTFKANRPFLVFIREVPLNTIIFMGRVANPCVK

- IC50 IIa/UFH; HCA #4 (thrombin [1]): 25 nM
- rsd. IIa catG; CA #14; stg1 conc 200 (thrombin [1]): 1%
- rsd. IIa hne; CA #14; stg1 conc 200 (thrombin [1]): 4%
- rsd. IIa no add; CA #14; stg1 conc 200 (thrombin [1]): 1%
- IC50 fXa/UFH; HCA #4 (factor Xa [2]): 22 nM
- rsd. Xa catG; CA #14; stg1 conc 200 (factor Xa [2]): 1%
- rsd. Xa hne; CA #14; stg1 conc 200 (factor Xa [2]): 2%
- rsd. Xa no add; CA #14; stg1 conc 200 (factor Xa [2]): 0%
- Kapp as a percentage of the plasma ATIII value (thrombin [3]): 91%
- Kapp as a percentage of the plasma ATIII value (factor Xa [4]): 145%
- Kapp as a percentage of the plasma ATIII value (thrombin [5]): 41%
- Kapp as a percentage of the plasma ATIII value (factor Xa [6]): 256%
- kapp (apparent second-order inhibition rate constant) (thrombin [7]): 5.37e+06 M⁻¹ s⁻¹
- kapp (apparent second-order inhibition rate constant) (factor Xa [8]): 831000 M⁻¹ s⁻¹
- kapp (apparent second-order inhibition rate constant) (thrombin [9]): 2920 M⁻¹ s⁻¹
- kapp (apparent second-order inhibition rate constant) (factor Xa [10]): 5360 M⁻¹ s⁻¹
B2: LEAI.482 (other)
chain: B1 chain with Y389H
